Experimental data published in patent publication US20220064327A1 (KYMAB, published 2022).
Substitutions are numbered along the chain they refer to. Where two headings read alike, the source gives them in different places. Each block holds one binder with its values, some of them ahead of it.

What was measured:
human factor X [1] = target: T1, human factor X (human, UniProt P00742 41-179; P00742 183-488); assay: SPR, bispecific captured on anti-human IgG Fc, FIX then FX injected
T1 construct: Zymogen used as analyte in SPR; also called FX; Human FX (MW ~58 KDa)
Description: (§1) The binding kinetics of the purified bispecific antibody was compared to an isotype control (ISTC). […] FIG. 21A.
(§2) Bispecific antibody (ligand), which had been purified by Protein A capture followed by ion exchange chromatography, was captured on to the anti-human IgG Fc CM4 surface at approximately 2 μg/ml. The ligand was injected at 10 μg/ml for 60 seconds at 10 μl/min in one active channel. The run was performed at 25° C. using neutral pH HBS-P 1×+CaCl₂ 2.5 mM as running buffer.

[2] = target: human FIX and human FX mixed 1:1 (10 µM 10 µM); assay: SPR, bispecific captured on anti-human IgG Fc, second injection of a 1:1 mixture of FIX and FX
human factor IX [3] = target: T2, human factor IX (human, UniProt P00740 47-461, 12 glutamic acid residues of the GLA domain are post-translationally γ-carboxylated); assay: SPR (Biacore 8K), antibody captured on anti-human IgG Fc CM4 chip, human FIX injected alone as analyte (10 µM, 180 s per Example 11) [i), B(i]
T2 construct: Zymogen used as analyte in SPR, reconstituted at 1 mg/ml; also called FIX; Human FIX (MW ~55 KDa)
Description: as §1, §2

human factor X [4] = target: T1, human factor X; assay: cell-based or functional assay
human factor IX [5] = target: T2, human factor IX; assay: SPR, IgG captured on anti-human IgG Fc, human FIX as analyte
human factor IX [6] = target: T2, human factor IX; assay: as above; remark: listed apart in the source
Description: (§3) SPR was used to determine the binding affinity (KD) to FIX or FX respectively, the kinetic constants on-rate (kₒₙ) and off-rate (koff). Analyses was performed using a Biacore 8K (GE Healthcare) system.
(§4) Monospecific antibodies (referred as ligand) which had been purified on Protein A were captured onto the anti-human IgG Fc CM4 surface at approximately 2 μg/ml. The ligands were injected for 60 seconds at 10 μl/min in all the active channels of all 8 flow channels. The run was performed at 25° C. using neutral pH HBS-P 1X+CaCl₂ 2.5 mM as running buffer.
(§5) Human FIX (MW ˜55 KDa) or human FX (MW ˜58 KDa) was reconstituted at 1 mg/ml in the running buffer and used as analyte. The analyte was injected in multiple cycle kinetics (MCK) mode at 3 concentrations (1.5 μM, 500 nM and 166.7 nM) with 120 seconds association phase and 200 seconds (for FIX) or 300 seconds (for FX) dissociation phase, at flow rate […] in both active and reference channels. Three injections of 10 mM Glycine pH 1.5 for 60 sec. at 10 μl/min were used for the regeneration phase.

human factor X [7] = target: T1, human factor X; assay: SPR, IgG captured on anti-human IgG Fc, human FX as analyte
human factor X [8] = target: T1, human factor X; assay: as above; remark: listed apart in the source
Description: as §3, §4, §5

T1 sequence (P00742 41-179, chain 1 of 2): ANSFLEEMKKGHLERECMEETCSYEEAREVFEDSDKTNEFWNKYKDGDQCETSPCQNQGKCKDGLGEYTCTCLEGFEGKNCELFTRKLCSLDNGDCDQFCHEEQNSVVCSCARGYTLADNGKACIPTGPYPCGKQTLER
T1 sequence (P00742 183-488, chain 2 of 2): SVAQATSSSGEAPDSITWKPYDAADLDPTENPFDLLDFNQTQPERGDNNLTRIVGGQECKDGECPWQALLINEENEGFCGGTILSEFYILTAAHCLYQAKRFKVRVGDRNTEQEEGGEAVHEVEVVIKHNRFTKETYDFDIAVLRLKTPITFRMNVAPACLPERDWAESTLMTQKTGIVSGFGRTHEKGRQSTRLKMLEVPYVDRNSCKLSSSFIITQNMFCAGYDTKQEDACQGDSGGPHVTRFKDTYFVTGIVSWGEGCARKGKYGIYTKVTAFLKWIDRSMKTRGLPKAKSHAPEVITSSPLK
T2 sequence (P00740 47-461 limits assumed): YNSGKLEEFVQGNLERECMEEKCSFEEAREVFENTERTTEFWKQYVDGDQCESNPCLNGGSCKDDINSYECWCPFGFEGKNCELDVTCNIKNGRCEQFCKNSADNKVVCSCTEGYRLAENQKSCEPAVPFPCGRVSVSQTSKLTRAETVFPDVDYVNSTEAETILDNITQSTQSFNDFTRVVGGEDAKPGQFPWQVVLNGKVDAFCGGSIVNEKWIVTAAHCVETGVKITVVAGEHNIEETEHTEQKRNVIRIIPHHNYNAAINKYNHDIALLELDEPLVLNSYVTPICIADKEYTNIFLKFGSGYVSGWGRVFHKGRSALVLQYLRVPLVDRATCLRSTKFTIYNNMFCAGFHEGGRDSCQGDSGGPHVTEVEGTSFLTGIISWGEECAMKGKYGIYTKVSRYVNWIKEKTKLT

binding result (human factor X [1]): binds
response above that of the anti-FX monospecific antibody (RU) [2]: 25 RU
binding result (human factor IX [3]): binds
B1: FIXxFX bispecific antibody IXAX-0436.0202.0128 (bispecific antibody, human IgG4 S228P, lambda)
heavy 1: EVQLVESGGGFVQPGGSLRLSCAVSGFTFNSYWMSWVRQAPGKGLEWVANINQDGSEKFYVASVKGRFTMSRDNAKKSVYVQMNSLRAEDTAVYYCAREGYSSISYYGMDVWGQGTTVTVSSASTKGPSVFPLAPCSRSTSESTAALGCLVKDYFPEPVTVSWNSGALTSGVHTFPAVLQSSGLYSLSSVVTVPSSSLGTQTYTCNVDHKPSNTKVDKRVESKYGPPCPPCPAPEFLGGPSVFLFPPKPKDTLMISRTPEVTCVVVDVSQEDPEVQFNWYVDGVEVHNAKTKPREEQYNSTYRVVSVLTVLHQDWLNGKEYKCKVSNKGLPSSIEKTISKAKGQPREPQVYTLPPSQEEMTKNQVSLTCLVKGFYPSDIAVEWESNGQPENNYKTTPPVLDSDGSFFLYSKLTVDKSRWQEGNVFSCSVMHEALHNHYTQESLSLSP
heavy 2: QVQLIQSGAEVQKPGASVKVSCKASRYSFTSYYMHWVRQAPGQGLEWMGIINPKSGSTSYAQKFQGRVTMTRDTSTSTVYMELSSLRSEDTAVYYCARDGYGSSSRCLQLWGQGTLVTVSSASTKGPSVFPLAPCSRSTSESTAALGCLVKDYFPEPVTVSWNSGALTSGVHTFPAVLQSSGLYSLSSVVTVPSSSLGTQTYTCNVDHKPSNTKVDKRVESKYGPPCPPCPAPEFLGGPSVFLFPPKPKDTLMISRTPEVTCVVVDVSQEDPEVQFNWYVDGVEVHNAKTKPREEQYNSTYRVVSVLTVLHQDWLNGKEYKCKVSNKGLPSSIEKTISKAKGQPREPQVYTLPPSQKEMTKNQVSLTCLVKGFYPSDIAVEWESNGQPENNYKTTPPVLDSDGSFFLYSKLTVDKSRWQEGNVFSCSVMHEALHNHYTQKSLSLSP
light: SYVLTQPPSVSVAPGETARITCGGDNIGRKSVYWYQQKSGQAPVLVIYYDSDRPSGIPERFSGSNSGNTATLTISRVEAGDEADYYCQVWDGSSDHWVFGGGTKLTVLGQPKAAPSVTLFPPSSEELQANKATLVCLISDFYPGAVTVAWKADSSPVKAGVETTTPSKQSNNKYAASSYLSLTPEQWKSHKSYSCQVTHEGSTVEKTVAPTECS
notes: also called N436 bispecific antibody

EC50, kinetic FXase assay (FIXa-catalysed activation of FX to FXa, OD405 nm at 600 s) (human factor X [4]): 3.99 nM
B2: IXAX-1280.0999.0325 (bispecific antibody, human IgG4 S228P, lambda)
heavy 1: B1 heavy 1 with T28R, E57R, S105K
heavy 2: B1 heavy 2 with E10K, Q12K, S28K, S104F, C107L, L108I
light: YVLTQPPSVSVAPGETARITCGGDNIGRKSVYWYQQKSGQAPVLVIYYDSDRPSGIPERFSGSNSGNTATLTISRVEAGDEADYYCQVWDGSSDHWVFGGGTKLTVLGQPKAAPSVTLFPPSSEELQANKATLVCLISDFYPGAVTVAWKADSSPVKAGVETTTPSKQSNNKYAASSYLSLTPEQWKSHKSYSCQVTHEGSTVEKTVAPTECS

Kd (human factor IX [5]): 180 nM
Kd (human factor IX [6]): 181 nM
koff (human factor IX [6]): 0.0318 s⁻¹
kon (human factor IX [6]): 175000 M⁻¹ s⁻¹
B3: NINA-0460.0128 (antibody, V domains shown)
VH: EVQLVESGGGFVQPGGSLRLSCAVSGFTFNSYWMSWVRQAPGKGLEWVANINQDGSEKFYVASVKGRFTMSRDNAKKSVYVQMNSLRAEDTAVYYCAREGYSSSQYYGMDVWGQGTTVTVSS
VL: SYVLTQPPSVSVAPGETARITCGGDNIGRKSVYWYQQKSGQAPVLVIYYDSDRPSGIPERFSGSNSGNTATLTISRVEAGDEADYYCQVWDGSSDHWVFGGGTKLTVL

Kd (human factor X [7]): 100 nM
Kd (human factor X [8]): 1360 nM
koff (human factor X [8]): 0.0853 s⁻¹
kon (human factor X [8]): 62600 M⁻¹ s⁻¹
B4: TINA-0205.0128 (antibody, V domains shown)
VH: QVQLVQSGAEVKKPGASVKVSCKASRYSFTSYYMHWVRQAPGQGLEWMGIINPKSGDTSYAQKFQGRVTMTRDTSTSTVYMELNSLRSEDTAVYYCARDGYGSSARCLQLWGQGTLVTVSS
VL: B3 VL
notes: Monospecific IgG4PE

Kd (human factor X [7]): 1400 nM
Kd (human factor X [8]): 1370 nM
koff (human factor X [8]): 0.133 s⁻¹
kon (human factor X [8]): 96900 M⁻¹ s⁻¹
B5: TINA-0213.0128 (antibody, V domains shown)
VH: B4 VH with P14T, D57T, N84S, A105S
VL: B3 VL
notes: Monospecific IgG4PE
